According to US20250186597A1, “TARGETED IMMUNE ACTIVATION WITH IL-18 IMMUNOCYTOKINES” (BRIGHT PEAK THERAPEUTICS AG, priority 2023, published 2025):

Legend:
[1] = test system: PD-1positive transduced NK-92 cells; experiment: IL-18BP mediated inhibition of IFN gamma secretion in PD-1 positive transduced NK-92 cells (Example 18); type: cell-based, human
Description: (§1) To characterize the resistance of anti-PD1-IL18 immunocytokines (IC) on PD-1 positive cells, the NK-92 cell line was used to generate a PD-1 expressing cell line and furthermore, to measure the inhibition of IFN[…] release upon incubation with IL-18 variants and ICs in the presence of increasing quantities of human IL-18BP.
(§2) On the day of experiment, parental PD-1^negative and PD-1^positive transduced cells were harvested and washed with PBS 1× and resuspended in medium (w/o IL-2) containing 1 ng/ml of recombinant human Interleukin-12 (SinoBiologicals, Cat #CT011-H08H). After counting, cells were seeded at 100 000 cells/well in a 384 well culture plate and incubated at 37° C./5% CO2. When indicated, cells were preincubated with anti-PD-1 antibody LZM-009 at 17 uM during 30 min at 37° C. […]
(§3) After 16-20 h incubation at 37° C./5% CO2, 5 μl of supernatant were carefully transferred to a 384 microwell OptiIPlate (Perkin Elmer; Cat #6007270) and Interferon-gamma (IFNγ) levels measured using the Human IFNγ AlphaLISA Assay Kit (Perkin Elmer, Cat #AL217C). […] AlphaLISA signal was then measured on an Enspire plate reader (Perkin Elmer) using 680 and 615 nm as excitation and emission wavelengths respectively. Half maximal inhibitory concentration (IC50) was calculated based on a variable slope, four parameter analysis using GraphPad PRISM software.

[2] = test system: parental PD-1negative NK-92 cells; experiment: IL-18BP mediated inhibition of IFN gamma secretion in parental PD-1 negative NK-92 cells (Example 18); type: cell-based, human; conditions: IL-18BP-mediated inhibition of IFNγ secretion, IL-18 analyte 1 nM
Description: as §1, §2, §3

[3] = biological target: T1, human IL-18 Binding Protein (IL-18BP) (Homo sapiens, UniProt O95998); experiment: IL-18 Binding Protein alphaLISA assay (Example 12); conditions: human IL-18BP
T1 sequence (O95998 31-194): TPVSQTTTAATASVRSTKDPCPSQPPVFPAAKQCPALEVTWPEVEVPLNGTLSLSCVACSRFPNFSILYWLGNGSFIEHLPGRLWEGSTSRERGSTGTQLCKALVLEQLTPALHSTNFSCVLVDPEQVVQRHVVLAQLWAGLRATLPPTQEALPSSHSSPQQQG
Description: Wild type or modified IL-18 polypeptides samples were diluted at 5.6 μM in a solution of 1× alphaLISA Immunoassay Buffer provided in the alphaLISA IFNγ Detection kit and were diluted applying 3-fold serial dilutions down to […] in 384 deep well plates. A solution of 10 ng/ml of human IL-18BP-His was prepared with 1×alphaLISA Immunoassay Buffer. IL-18/IL-18BP complex formation was performed incubating 30 μl of IL-18BP solution to IL-18 sample titrations for 1 h at 20° C. IL-18BP standard was prediluted from stock solution supplied in alphaLISA IFNγ Detection kit at 100 ng/ml with 1×alphaLISA Buffer and titration prepared from applying 2-fold serial dilutions. The following solutions were prepared: a 50 μg/ml solution of anti-IL-18BP alphaLISA Acceptor beads, a 5 nM solution of biotinylated anti-IL18BP antibody and a 80 μg/ml light-protected solution of Streptavidin Donor beads in 1×alphaLISA Immunoassay Buffer. […]
5 μl of Biotinylated anti-IL-18BP antibody were added, followed by a short centrifugation step at 150 g, and incubated for 60 minutes at 20° C. under shaking at 750 rpm. […] AlphaLisa signal was then measured on an Enspire plate reader (Perkin Elmer) using 680 and 615 nm as excitation and emission wavelengths respectively. […]

NK92 cells = experiment: Cellular IL-18 Binding Protein resistance assay in NK92 cells (Example 13); type: cell-based, human; conditions: IL-18BP-mediated inhibition of IFNγ secretion, IL-18 analyte 1 nM
Description: The NK cell line NK-92 derived from a patient with lymphoma (ATCC, Cat #CR^L-2407) was cultured in αMEM medium supplemented with 20% FCS-Glutamax, 25 μM B-mercaptoethanol, and 100 IU/ml of recombinant Human Interleukin-2 (IL-2). On the day of experiment, cells were harvested and washed with αMEM medium without IL-2. After counting, cells were seeded at 100 000 cells/well in a 384 well titer plate and incubated at 37° C./5% CO2. Sixteen 2-fold serial dilutions of Fc fused human IL-18 binding protein isoform a (IL-18BPa; R&D systems, Cat #119-BP) were prepared in αMEM medium—1 ng/ml IL-12 containing 2 nM of each IL-18 variants and were added to the NK-92 cells. Final IL-18 analytes concentration was 1 nM and final IL-18BPa concentrations ranged from to 566 nM down to 17 pM.
After 16-20 h incubation at 37° C./5% CO2, 5 μl of supernatant were carefully transferred to a 384 microwells OPTIplate (Perkin Elmer; Cat #6007270) and Interferon-gamma (IFNγ) levels measured using the Human IFNγ AlphaLISA Assay Kit (Perkin Elmer, Cat #AL217C). […] AlphaLisa signal was then measured on an Enspire plate reader (Perkin Elmer) using 680 and 615 nm as excitation and emission wavelengths respectively. Half maximal inhibitory concentration (IC50) was calculated based on a variable slope, four parameter analysis using GraphPad PRISM software.

B1: SEQ ID NO: 30: IL-18 polypeptide: E6K, V11I, C38A, K53A, T63A, C76A, C127A (protein)
chain: YFGKLKSKLSIIRNLNDQVLFIDQGNRPLFEDMTDSDARDNAPRTIFIISMYADSQPRGMAVAISVKCEKISTLSAENKIISFKEMNPPDNIKDTKSDIIFFQRSVPGHDNKMQFESSSYEGYFLAAEKERDLFKLILKKEDELGDRSIMFTVQNED
**Q.** How did the IC50 ([1]; IL-18BP-mediated inhibition of IFNγ secretion, IL-18 analyte 1 nM) turn out when B1 was run?
**A.** 0.0803 µM

**Q.** What about the “PD-1^pos/PD-1^neg IC50 ratio” value ([1]; NK-92 cells) of the same molecule?
**A.** 1.0

**Q.** What about the IC50 [2] of the same molecule?
**A.** 0.11 µM

**Q.** And the Kd [3]?
**A.** 0.0246 µM

**Q.** What about the IC50 (NK92 cells) of the same molecule?
**A.** 0.488 µM
